Laboratory results reported in publication PMC6695731, “Application of a Substrate-Mediated Selection with c-Src Tyrosine Kinase to a DNA-Encoded Chemical Library” (Molecules, 2019).
Like-named read-outs stand apart in the source and are kept apart here. Blank lines part the entries; values can stand above or below the molecule they belong to.

Experiments:
[1] = target: T1, c-Src (Homo sapiens, UniProt P12931); experiment: NADH-based coupled enzyme assay detecting ADP generation; assay type: biochemical; conditions: 1 mM ATP, 100 µM compound, 12 nM Src, 30 °C, 3 h
Procedure: To confirm this, compounds were tested with an NADH-based, coupled enzyme assay that also detects ADP generation. […] This additionally supported that the ADP-Glo activity observed was due to activation of ATP hydrolysis and not phosphotransfer to these compounds.
Kinase reaction was performed as follows 1x kinase buffer (25 mM Tris-HCl (pH 7.5), 2 mM dithiothreitol (DTT), 0.1 mM Na3VO4, 10 mM MgCl2), 1 mM ATP, 100 μM peptides and 12 nM Src at 30 °C for 3 h. The kinase reaction mixture was incubated with 30 unit/mL lactic dehydrogenase (LDH), 20 unit/mL pyruvate kinase (PK), 2 mM phosphoenolpyruvate (PEP), and 1 mM NADH. The absorbance of NADH was monitored at 340 nm.
Figure S8. NADH Coupled Assay of Hit Molecules with c-Src. Samples were composed of 1 mM ATP,
100 µM putative substrate molecules, and 12 nM c-Src kinase at 30 C for 3 hours. Full method description
is provided in Methods and Materials 4.6 NADH assay.

[2] = target: T1, c-Src; experiment: ADP-Glo assay of compounds as c-Src substrates (ADP production); assay type: biochemical; conditions: for Vmax / Km: Table S3, ADP-Glo assay of SrcDEL10 derivatives, enzyme Src; for activity as substrate in ADP-Glo assay (words): SrcDEL10 derivatives compared with parental compound
Procedure: (§1) Hit molecules were initially characterized as substrates for c-Src using the luciferase-based ADP-Glo assay (Promega). All six molecules appeared to be efficient substrates for Src kinase.
(§2) Kinase reaction was performed as follows 1x kinase buffer (25 mM Tris-HCl (pH 7.5), 2 mM dithiothreitol (DTT), 0.1 mM Na3VO4, 10 mM MgCl2), 1 mM ATP, different concentrations (1 μM to 100 μM) of substrates (either off DNA or on DNA hit molecules), and 12 nM rSrc by incubation for 2 h at 30 °C. After that, distinct 55mers were annealed to each kinase reaction, as previously described. The annealed reactions were incubated with anti Pho-Tyr loaded protein G magnetic bead at RT for 30 min. After washing by three times 20 μL 1xPBST with 1 mg/mL BSA, 1 mg/mL tRNAs), the captured samples were eluted by 20 μL of 1 mM phenylphosphate. The resulting supernatant was then used as a template in qPCR.
(§3) After the kinase reaction was performed as previous section, the reaction mixture (5 μL) was incubated with 5 µL of ADP-Glo™ reagent at RT for 40 min and then add 10 µL of kinase detection reagent at RT for 1 h. The luminescence was measure by plate reader.

[3] = target: T1, c-Src; experiment: radiolabel (32P-ATP) inhibition assay of LYNtide phosphorylation by c-Src; assay type: biochemical; conditions: 32P-ATP 50 µM, biotinylated-LYNtide 50 µM
Procedure: The original six off-DNA hits were tested for inhibition of c-Src activity. For these tests, we used ^32P-ATP as a substrate and detected phosphorylation levels of a biotinylated-LYNtide substrate after adsorption to streptavidin coated membranes. This assay should not be affected by activation of ATP hydrolysis or phosphotransfer to the small molecules. […] There was no apparent correlation of these values to the Km or kcat values in the prior assays as substrates.
Each hit molecule was preincubated with 1.2 nM c-Src at 30 °C for 30 min. The kinase reaction was initiated with the addition of 50 μM LYNtide and 50 μM ATP with 0.15 μCi gamma ^32P ATP at 30 °C for 10 min. The kinase reaction samples (2 µL) were spotted on P81 filter paper consisting of 1.5 cm squares. After air dry, the P81 papers were washed 4 times with 0.5% phosphoric acid for 5 min each. The P81 papers were washed one time with acetone for 5 min. The papers were then allowed to air dry for about 20 min. The dried P81 papers were analyzed by liquid scintillation counter.
Figure 6 Inhibition of hit molecules in a radiolabel assay with ^32P-ATP (50 µM) and biotinylated-LYNtide (50 µM) as substrates.

[4] = system: c-Src; conditions: cited from earlier work
[5] = system: NC(=O)C(Cc1ccc(O)cc1)NC(=O)CN(CCCCCCO)C(=O)C1Cc2ccccc2N1C(=O)CCc1ccc(O)cc1; experiment: ADP-Glo assay of compounds as c-Src substrates (ADP production); assay type: biochemical; conditions: other: ADP-Glo assay, compound as substrate of c-Src; pH 7.5; 30.0 °C
Procedure: as §1, §2, §3

[6] = system: NC(=O)CN(CCc1ccc(O)cc1)C(=O)[C@H](CC(=O)O)NC(=O)c1cccc(CN(CC2CC2)C(=O)CCO)c1; experiment: as above; assay type: biochemical; conditions: other: Table S3, ADP-Glo assay of SrcDEL10 derivatives, enzyme Src; pH 7.5; 30.0 °C
Procedure: as §1, §2, §3

[7] = system: C[C@H](NC(=O)c1ccc(CN(CC2CC2)C(=O)CCO)cc1)C(=O)N(CCc1ccc(O)cc1)CC(N)=O; experiment: as above; assay type: biochemical; conditions: other: Table S3, ADP-Glo assay of SrcDEL10 derivatives, enzyme Src; pH 7.5; 30.0 °C
Procedure: as §1, §2, §3

[8] = system: NC(=O)[C@H](Cc1cccnc1)NC(=O)CN(CC1CC1)C(=O)CCc1ccc(O)cc1; experiment: as above; assay type: biochemical; conditions: other: ADP-Glo assay, compound as substrate of c-Src; pH 7.5; 30.0 °C
Procedure: as §1, §2, §3

[9] = system: NC(=O)[C@H](Cc1ccc(O)cc1)NC(=O)[C@H](CC(=O)O)NC(=O)c1ccc(CN(CC2CC2)C(=O)CCO)cc1; experiment: as above; assay type: biochemical; conditions: other: Table S3, ADP-Glo assay of SrcDEL10 derivatives, enzyme Src; pH 7.5; 30.0 °C
Procedure: as §1, §2, §3

[10] = system: NC(=O)CN(CCc1ccc(O)cc1)C(=O)[C@H](CC(=O)O)NC(=O)c1ccc(CN(CC2CC2)C(=O)CCO)cc1; experiment: as above; assay type: biochemical; conditions: other: ADP-Glo assay, compound as substrate of c-Src; pH 7.5; 30.0 °C
Procedure: as §1, §2, §3

[11] = system: NC(=O)C1Cc2ccc(O)cc2CN1C(=O)C(CC(=O)O)NC(=O)c1ccc(CN(CC2CC2)C(=O)CCO)cc1; experiment: as above; assay type: biochemical; conditions: other: Table S3, ADP-Glo assay of SrcDEL10 derivatives, enzyme Src; pH 7.5; 30.0 °C
Procedure: as §1, §2, §3

[12] = system: NC(=O)CN(CCc1ccccc1)C(=O)[C@H](CC(=O)O)NC(=O)c1ccc(CN(CC2CC2)C(=O)CCO)cc1; experiment: as above; assay type: biochemical; conditions: pH 7.5, 30.0 °C
Procedure: as §1, §2, §3

[13] = system: O=C(O)C[C@H](NC(=O)c1ccc(CN(CC2CC2)C(=O)CCO)cc1)C(=O)NCCc1ccc(O)cc1; experiment: as above; assay type: biochemical; conditions: other: Table S3, ADP-Glo assay of SrcDEL10 derivatives, enzyme Src; pH 7.5; 30.0 °C
Procedure: as §1, §2, §3

[14] = system: NC(=O)CN(CCc1ccc(O)cc1)C(=O)[C@H](CCC(=O)O)NC(=O)c1ccc(CN(CC2CC2)C(=O)CCO)cc1; experiment: as above; assay type: biochemical; conditions: other: Table S3, ADP-Glo assay of SrcDEL10 derivatives, enzyme Src; pH 7.5; 30.0 °C
Procedure: as §1, §2, §3

[15] = system: N=C(N)NCCC[C@H](NC(=O)CN(Cc1ccco1)C(=O)CCO)C(=O)N(CCc1ccc(O)cc1)Cc1ccc(C(N)=O)cc1; experiment: as above; assay type: biochemical; conditions: other: ADP-Glo assay, compound as substrate of c-Src; pH 7.5; 30.0 °C
Procedure: as §1, §2, §3

[16] = system: NC(=O)C(Cc1cccnc1)NC(=O)CN(CCc1ccc(O)cc1)C(=O)C1Cc2c([nH]c3ccccc23)CN1C(=O)CCO; experiment: as above; assay type: biochemical; conditions: other: ADP-Glo assay, compound as substrate of c-Src; pH 7.5; 30.0 °C
Procedure: as §1, §2, §3

[17] = system: NC(=O)CN(CCCCCCO)C(=O)c1ccc(CNC(=O)[C@H](Cc2ccc(O)cc2)NC(=O)CCc2ccc(O)cc2)cc1; experiment: as above; assay type: biochemical; conditions: other: ADP-Glo assay, compound as substrate of c-Src; pH 7.5; 30.0 °C
Procedure: as §1, §2, §3

[18] = c-Src substrates lacking acidic residues, Lam and coworkers
[19] = other: Table S3, ADP-Glo assay of SrcDEL10 derivatives, enzyme Src
[20] = optimal natural peptide sequence for c-Src, reference not given

Molecule: NC(=O)[C@H](Cc1cccnc1)NC(=O)CN(CC1CC1)C(=O)CCc1ccc(O)cc1 [SrcDEL21]
- ADP generation relative to compound [1]: large molar excess

Molecule: NC(=O)C(Cc1ccc(O)cc1)NC(=O)CN(CCCCCCO)C(=O)C1Cc2ccccc2N1C(=O)CCc1ccc(O)cc1 (centres unmarked) [SrcDEL16]
- ADP generation relative to compound [1]: little turnover
- IC50 [3]: 26 µM

Molecule: GIYWHHY [efficient c-Src peptide substrate lacking acidic residues]
- Km [4, 18]: 21 µM

Molecule: NC(=O)CN(CCCCCCO)C(=O)c1ccc(CNC(=O)[C@H](Cc2ccc(O)cc2)NC(=O)CCc2ccc(O)cc2)cc1 [SrcDEL14]
- ADP generation relative to compound [1]: little turnover
- IC50 [3]: 18 µM

Molecule: c-Src (Homo sapiens)
- Km [5]: 18 µM
- kcat [5]: 0.533 s⁻¹
- kcat/Km [5]: 30000 M⁻¹ s⁻¹
- Km [6]: 9.68 µM
- kcat [6]: 44. 66 1/min
- kcat/Km [6]: 4. 61 1/min/uM
- Km [7]: 4.31 µM
- kcat [7]: 41 min⁻¹
- kcat/Km [7]: 9. 52 1/min/uM
- Km [8]: 28 µM
- kcat [8]: 1.43 s⁻¹
- kcat/Km [8]: 50000 M⁻¹ s⁻¹
- Km [9]: 4.37 µM
- kcat [9]: 89. 33 1/min
- kcat/Km [9]: 20. 56 1/min/uM
- Km [10]: 18 µM
- kcat [10]: 1.37 s⁻¹
- kcat/Km [10]: 76700 M⁻¹ s⁻¹
- Km [11]: 15.4 µM
- kcat [11]: 122. 8 1/min
- kcat/Km [11]: 7. 95 1/min/uM
- kcat/Km ([12]; other: ADP-Glo assay): 6.9 min⁻¹ µM⁻¹
- Km [12, 19]: 21.1 µM
- kcat [12, 19]: 144. 9 1/min
- kcat/Km [12, 19]: 6. 86 1/min/uM
- Km [13]: 3.79 µM
- kcat [13]: 24. 21 1/min
- kcat/Km [13]: 6. 39 1/min/uM
- Km [14]: 20.7 µM
- kcat [14]: 92. 84 1/min
- kcat/Km [14]: 4. 49 1/min/uM
- Km [15]: 19 µM
- kcat [15]: 2.5 s⁻¹
- kcat/Km [15]: 130000 M⁻¹ s⁻¹
- Km [16]: 33 µM
- kcat [16]: 5.83 s⁻¹
- kcat/Km [16]: 183000 M⁻¹ s⁻¹
- Km [17]: 13 µM
- kcat [17]: 0.75 s⁻¹
- kcat/Km [17]: 55000 M⁻¹ s⁻¹

Molecule: N=C(N)NCCC[C@H](NC(=O)CN(Cc1ccco1)C(=O)CCO)C(=O)N(CCc1ccc(O)cc1)Cc1ccc(C(N)=O)cc1 [SrcDEL8]
- ADP generation relative to compound [1]: large molar excess
- IC50 [3]: 96 µM

Molecule: YIYGSFK [efficient c-Src peptide substrate lacking acidic residues]
- Km [4, 18]: 55 µM

Molecule: NC(=O)CN(CCc1ccccc1)C(=O)[C@H](CC(=O)O)NC(=O)c1ccc(CN(CC2CC2)C(=O)CCO)cc1 [Src 10-6]
- activity as substrate in ADP-Glo assay (words) [2]: comparable substrate to the parental compound

Molecule: EEEIYGIFG
- Km [4, 20]: 14 µM
- kcat [4, 20]: 2.9 s⁻¹

Molecule: NC(=O)C(Cc1cccnc1)NC(=O)CN(CCc1ccc(O)cc1)C(=O)C1Cc2c([nH]c3ccccc23)CN1C(=O)CCO (centres unmarked) [SrcDEL5]
- ADP generation relative to compound [1]: large molar excess
- IC50 [3]: 64 µM

Further lines, results first:

- Vmax [2]: 0.54 µM/min
Molecule: NC(=O)CN(CCc1ccc(O)cc1)C(=O)[C@H](CC(=O)O)NC(=O)c1cccc(CN(CC2CC2)C(=O)CCO)c1 [Src 10-4]

- Km [2]: > 100 µM
Molecule: NC(=O)CN(Cc1cccc(O)c1)C(=O)[C@H](CC(=O)O)NC(=O)c1ccc(CN(CC2CC2)C(=O)CCO)cc1 [Src 10-10]

- Km [2]: > 100 µM
Molecule: CC(=O)N(Cc1ccc(C(=O)N[C@@H](CC(=O)O)C(=O)N(CCc2ccc(O)cc2)CC(N)=O)cc1)CC1CC1 [Src 10-9]

- activity as substrate in ADP-Glo assay (words) ([2]; listed as 10–8): lacked activity altogether
- activity as substrate in ADP-Glo assay (words) ([2]; listed as Src-10-8): No activity
- Km [2]: > 100 µM
Molecule: CCCN(Cc1ccc(C(=O)N[C@@H](CC(=O)O)C(=O)N(CCc2ccc(O)cc2)CC(N)=O)cc1)C(=O)CCO [Src 10-8]

- Vmax [2]: 0.382 µM/min
Molecule: O=C(O)C[C@H](NC(=O)c1ccc(CN(CC2CC2)C(=O)CCO)cc1)C(=O)NCCc1ccc(O)cc1 [Src 10-3]

- Vmax [2]: 0.492 µM/min
Molecule: C[C@H](NC(=O)c1ccc(CN(CC2CC2)C(=O)CCO)cc1)C(=O)N(CCc1ccc(O)cc1)CC(N)=O [Src 10-2]
